In PMC6629707, “The Kindlin2-p53-SerpinB2 signaling axis is required for cellular senescence in breast cancer” (Cell Death & Disease, 2019):

Target: T1, purified p53 protein (Abcam) (UniProt P04637 1-393)
T1 construct: p53 protein bought from Abcam; also called immobilized p53; source: bought: Abcam
Assay: ELISA; solid phase direct binding assay; p53 immobilised on 96-well plates at 5 μg/well, 20 h, 4 °C; 3% BSA; GST-tagged Kindlin-2 variants or GST 0–7 µM in TBS with 1 mM CaCl2, 1 mM MgCl2, 2 h at 37 °C; detected with anti-GST-HRP; GST signal subtracted; one-site binding fit
Conditions: both partners purified

T1 sequence (P04637 whole entry): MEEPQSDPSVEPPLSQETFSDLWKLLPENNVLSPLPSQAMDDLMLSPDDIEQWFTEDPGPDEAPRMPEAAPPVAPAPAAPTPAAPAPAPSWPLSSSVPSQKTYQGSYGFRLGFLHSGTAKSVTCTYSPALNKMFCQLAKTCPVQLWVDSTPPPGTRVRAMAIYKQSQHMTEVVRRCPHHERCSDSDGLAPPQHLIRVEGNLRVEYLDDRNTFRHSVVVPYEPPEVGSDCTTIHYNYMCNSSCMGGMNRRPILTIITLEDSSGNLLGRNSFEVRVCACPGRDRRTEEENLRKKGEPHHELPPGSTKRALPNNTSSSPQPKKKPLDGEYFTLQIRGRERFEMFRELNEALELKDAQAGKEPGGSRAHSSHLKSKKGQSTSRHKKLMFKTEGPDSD

- EC50: 480 nM
B1: GST-tagged full-length wild-type Kindlin-2 (natural protein, UniProt Q96AC1 1-680, looked up)
chain: MALDGIRMPDGCYADGTWELSVHVTDLNRDVTLRVTGEVHIGGVMLKLVEKLDVKKDWSDHALWWEKKRTWLLKTHWTLDKYGIQADAKLQFTPQHKLLRLQLPNMKYVKVKVNFSDRVFKAVSDICKTFNIRHPEELSLLKKPRDPTKKKKKKLDDQSEDEALELEGPLITPGSGSIYSSPGLYSKTMTPTYDAHDGSPLSPTSAWFGDSALSEGNPGILAVSQPITSPEILAKMFKPQALLDKAKINQGWLDSSRSLMEQDVKENEALLLRFKYYSFFDLNPKYDAIRINQLYEQAKWAILLEEIECTEEEMMMFAALQYHINKLSIMTSENHLNNSDKEVDEVDAALSDLEITLEGGKTSTILGDITSIPELADYIKVFKPKKLTLKGYKQYWCTFKDTSISCYKSKEESSGTPAHQMNLRGCEVTPDVNISGQKFNIKLLIPVAEGMNEIWLRCDNEKQYAHWMAACRLASKGKTMADSSYNLEVQNILSFLKMQHLNPDPQLIPEQITTDITPECLVSPRYLKKYKNKQITARILEAHQNVAQMSLIEAKMRFIQAWQSLPEFGITHFIARFQGGKKEELIGIAYNRLIRMDASTGDAIKTWRFSNMKQWNVNWEIKMVTVEFADEVRLSFICTEVDCKVVHEFIGGYIFLSTRAKDQNESLDEEMFYKLTSGWV
notes: Kindlin-2, full length, wild type; expressed as a GST fusion protein; also called Kindlin-2-GST; GST-tagged WT Kindlin-2; source: Escherichia coli, purified on Glutathione-Sepharose
